Holding throughout (assay): ELISA, coated antigen, OD450
For orientation: In an ELISA, binding on a coated surface is turned into a signal by an enzyme label.

The target in assay [1] is Mature Activin A (human) (UniProt P08476).
Assay [2] deals with T1, Activin B (Homo sapiens (Human)) (UniProt P09529).
T1 sequence: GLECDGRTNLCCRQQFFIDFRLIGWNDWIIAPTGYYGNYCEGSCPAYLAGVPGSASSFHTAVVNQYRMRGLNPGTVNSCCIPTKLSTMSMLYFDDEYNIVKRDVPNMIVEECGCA

For assay [3], the target named is T2, Inhibin A (Homo sapiens (Human)) (UniProt P05111).
T2 sequence 1: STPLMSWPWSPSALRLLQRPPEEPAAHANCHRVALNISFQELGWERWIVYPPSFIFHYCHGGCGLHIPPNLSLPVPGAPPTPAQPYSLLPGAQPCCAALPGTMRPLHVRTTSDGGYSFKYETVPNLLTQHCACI
T2 sequence 2: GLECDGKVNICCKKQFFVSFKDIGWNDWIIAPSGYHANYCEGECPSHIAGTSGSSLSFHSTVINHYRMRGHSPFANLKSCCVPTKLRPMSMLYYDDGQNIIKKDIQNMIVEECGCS

B1: AB330 (antibody, IgG1, V domains shown)
VH: QVQLVQSGAEVKKPGASVKVSCKVSGYPSPATISWVRQAPGKGLEWMGWMNPKSGYTNYAQKFQGRVTMTEDTSTDTAYMELSSLKSEDTAVYYCATLHGSGLAFDIWGQGTMVTVSS
VL: DIQMTQSPSSVSASVGDRVTITCRASQDIKSDLAWYQQKPGKAPKLLIYRASARESGVPSRFSGSGSGTDFTLTISSLQPEDFANYYCQQYRSFPWSFGGGTKVEIK
Consider B1, for which the fold-change of OD 450 over negative control (BSA) in assay [1] came to 1.39 fold.

B2: AB439 (antibody, IgG1, V domains shown)
VH: EVQLVQSGAEVKKPGASVKVSCKASGYTYTGYRISWVRQAPGQGLEWMGWIDPKSGRTNYAQKLQGRGTMTTDPSTSTAYMELRSLRSDDTAVYYCAREVKQWLVPGRGVYWFDPWGQGTLVTVSS
VL: ESALTQPASVSGSPGQSITISCTGTNIGLRSVSWYQQHPGKAPKLMIYDTNIRSSGVSNRFSGSKSGNTASLTISGLQAEDEADYYCSSYTSSSTDVFGGGTKLTVL
For B2, the fold-change of OD 450 over negative control (BSA) in assay [2] came to 1.17 fold; in assay [3] it was 1.38 fold.
